Measurements from patent publication US20230203155A1 (ALMAC DISCOVERY, published 2023).
Each block holds one binder with its values, some of them ahead of it.

B5: Peptide 5 (peptide)
peptide: RSTIYGSRLRIRNLDTTDTGYFQ
notes: linear ROR1 ECD peptide
B6: P3A1 his myc (VNAR)
VNAR: TRVDQTPRTATKETGESLTINCVLTDTSYGLYSTSWFRKNPGTTDWERMSIGGRYVESVNKGAKSFSLRIKDLTVADSATYYCKAREARHPWLRQWYDGAGTVLTVNQ
notes: VNAR; also called P3A1 6xHis myc

How the values were obtained:
[1] = target: T1, mouse ROR1-Fc fusion protein (mouse); assay: ELISA
T1 construct: Whole entry 'mouse ROR1-Fc (CHO)'; also called mROR1

[2] = target: T2, human serum albumin (human, UniProt P02768 25-609); assay: BLI, HSA on sensor
T2 construct: also called HSA
Protocol: (§1) Binding kinetics were determined using a SPR (as previously described) or using Biolayer interferometry (K2 Octet instrument/Pall ForteBio). […] VNARs and VNAR-Fc molecules were tested at various concentrations and the Ka (M−1s−1), Kd (s−1) and KD (nM) values were determined using the Octet data analysis HT software (Pall ForteBio).

[3] = target: T3, human ROR1-hFc fusion protein (extracellular domain) (human); assay: BLI, ROR1-hFc on sensor
T3 construct: Whole entry 'human ROR1-Fc (CHO)'; also called hROR1; huROR1-Fc
Protocol: as §1

[4] = target: T3, human ROR1-hFc fusion protein …; assay: BLI, ROR1-hFc on sensor, 200 nM HSA present
Protocol: as §1

[5] = target: T4, human ROR1 on the surface of ROR1hi human cancer cell lines (human, UniProt Q01973 30-937); assay: flow cytometry, A549 (ROR1hi) cells, 4°C
T4 construct: whole, on cells; Cell line is named under assay; also called cell surface ROR1

[6] = target: T4, human ROR1 on the surface of ROR1hi …; assay: flow cytometry, A549 (ROR1hi) cells
Protocol: (§2) Adherent human cancer cells were detached from tissue culture flasks by incubating with 0.1% EDTA/PBS solution at 37° C. for −10 minutes or until cells detached easily. Cells were re-suspended in 5 ml ice-cold PBS/2% FCS in 15 ml tubes and centrifuged at 1500 rpm for 5 mins at 4° C. Supernatant was removed and the cell pellet re-suspended in 1-2 ml of PBS/2% FCS. A cell count was performed using a Z1 Coulter Particle Counter (Beckman Coulter) and 5×10\hat{ }5 cells were aliquoted per test sample. Cells were incubated with 100 μl of either VNAR (His₆Myc tagged), VNAR-Fc molecules or ROR1 mAb and IgG controls for 1 hour on ice. Excess VNAR, VNAR-Fc or mAb was removed by adding 5 ml of ice-cold PBS/2% FCS, followed by centrifugation at 1500 rpm for 5 mins at 4° C. The supernatant was removed and a second wash performed by re-suspending the cell pellet in 1 ml of ice-cold PBS/2% FCS and adding a further 4 ml of ice-cold PBS/2% FCS. Samples were again centrifuged at 1500 rpm for 5 min at 4° C. Supernatant was removed and excess liquid removed by blotting the tubes on tissue paper. […] Cells were incubated with chosen secondary antibody for 30 min on ice. Cells were washed to remove excess antibody as described earlier. […]

[7] = target: T5, B1 VNAR with C-terminal His6Myc tag; assay: competition ELISA: VNAR pre-incubated with peptide 5, residual binding to coated huROR1-Fc [continued]
T5 construct: VNAR, E. coli; also called B1 his myc; B1HisMyc monomer
Protocol: (§3) In brief, ELISA method as follows. Wells coated with 100 ng antigen and incubated, covered, at room temperature for 2 hr. Plates washed 3×400 ul per well with PBST (PBS+0.05% Tween 20 (v/v)), then blocked with 4% skimmed milk powder (w/v) in PBST for 1 hour at 37° C. Plates washed as before plus additional wash in PBS alone. Binding proteins were diluted in 4% milk PBST and incubated overnight at 4° C. Plates washed 3× with PBST, 3×PBS and binding detected using appropriate secondary detection antibody in 4% milk PBST, room temperature 1 hour. […] Rabbit anti-Mouse IgG H&L, HRP (Abcam #ab97046) [0360] Mouse anti-polyHis, HRP (Sigma #A7058)
(§4) Competition assays were conducted as described in the methods with all four peptides reconstituted in PBS.

[8] = target: B6; assay: as above
Protocol: as §3, §4

[9] = target: T6, D3 his myc; assay: as above
T6 construct: VNAR; made in E. coli and in HEK293 (expression system under assay); also called D3 WT
Protocol: as §3, §4

[10] = target: T7, D3-[G4S]5-D3 his myc; assay: as above
T7 construct: VNAR homodimer by genetic fusion; also called D3-D3; D3 dimer
Protocol: as §3, §4

[11] = target: T8, recombinant human ROR1 (hROR1), construct not stated (human, UniProt Q01973 30-403, limits assumed); assay: SPR, hROR1 on chip
[12] = target: T3, human ROR1-hFc fusion protein …; assay: SPR, ROR1-hFc on chip
Protocol: (§5) Binding kinetics were determined using a Pioneer Surface Plasmon Resonance (SPR) instrument (SensiQ/Pall ForteBio). […] VNARs and VNAR-Fc molecules were tested at various concentrations and the Ka (M⁻¹s⁻¹), Kd (s⁻¹) and KD (nM) values were determined using QDat software (SensiQ/Pall ForteBio).

[13] = target: T3, human ROR1-hFc fusion protein …; assay: SPR, ROR1-hFc on chip; remark: listed apart in the source
Protocol: as §5

[14] = target: T9, rat ROR1-Fc fusion protein (rat); assay: SPR, rat ROR1 on chip
T9 construct: Whole entry 'rat ROR1-Fc (CHO)'; also called rROR1
Protocol: as §5

[15] = target: T1, mouse ROR1-Fc fusion protein; assay: SPR, mouse ROR1 on chip
Protocol: as §5

[16] = target: T10, Fz-Kr-Fc; assay: analytical SEC and SDS-PAGE of fractions
T10 construct: also called human ROR1 (FZKR domains)-Fc (CHO)
Protocol: 1:1 VNAR:ROR1 domain or ROR1 domain pairs was incubated on ice for 30 mins then run on a the Superdex 200 increase 10/300 column (GE Healthcare) in PBS and fractions analysed by SDS-PAGE.
Complex formation was then assessed using analytical SEC.

[17] = target: T8, recombinant human ROR1 (hROR1), …; assay: SPR, hROR1 on chip with competitor B1 pre-captured
Protocol: Competition of binding studies were completed using SPR. […] FC2 was used as the reference channel. […] Binding kinetics were determined using QDat software.

[18] = target: T11, human ROR2-hFc fusion protein (extracellular domain) (human); assay: direct ELISA, panel Binding to human ROR2-Fc
T11 construct: Whole entry 'human ROR2-Fc (CHO)'; also called hROR2
Protocol: as §3

[19] = target: B5; assay: direct ELISA on coated peptide 5 [continued]
Protocol: as §3

[20] = target: T12, Peptide 1 (human); assay: direct ELISA on coated peptide (in PBS), panel P3A1 direct binding ELISA
T12 construct: linear ROR1 ECD peptide
T12 peptide: YMESLHMQGEIENQI

[21] = target: T13, Peptide 2 (human); assay: as above
T13 construct: linear ROR1 ECD peptide; insoluble in PBS
T13 peptide: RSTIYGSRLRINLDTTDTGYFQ

[22] = target: T14, Peptide 3 (human); assay: as above
T14 construct: linear ROR1 ECD peptide
T14 peptide: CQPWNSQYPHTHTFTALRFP

[23] = target: T15, Peptide 4 (human); assay: as above
T15 construct: linear ROR1 ECD peptide
T15 peptide: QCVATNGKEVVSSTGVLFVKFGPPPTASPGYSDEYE

[24] = target: T16, human ROR1 (FZ domain)-Fc (human); assay: direct ELISA on coated Frizzled domain, panel Binding of P3A1 to human ROR1 domains
T16 construct: also called Fz-Fc; Frizzle domain

[25] = target: T11, human ROR2-hFc fusion protein …; assay: SPR, ROR2-hFc on chip
[26] = target: T11, human ROR2-hFc fusion protein …; assay: SPR, ROR2-hFc on chip; remark: listed apart in the source
Protocol: as §5, §1

[27] = target: T4, human ROR1 on the surface of ROR1hi …; assay: flow cytometry on A549 (ROR1hi) cells, PE-anti Myc tag Ab
Protocol: FIG. 9: Cell surface binding of VNAR (His₆Myc tag) molecules to A549 (ROR1^hi) lung cancer cells by flow cytometry.
as §2

T9 sequence (chain, as listed by the source limits assumed): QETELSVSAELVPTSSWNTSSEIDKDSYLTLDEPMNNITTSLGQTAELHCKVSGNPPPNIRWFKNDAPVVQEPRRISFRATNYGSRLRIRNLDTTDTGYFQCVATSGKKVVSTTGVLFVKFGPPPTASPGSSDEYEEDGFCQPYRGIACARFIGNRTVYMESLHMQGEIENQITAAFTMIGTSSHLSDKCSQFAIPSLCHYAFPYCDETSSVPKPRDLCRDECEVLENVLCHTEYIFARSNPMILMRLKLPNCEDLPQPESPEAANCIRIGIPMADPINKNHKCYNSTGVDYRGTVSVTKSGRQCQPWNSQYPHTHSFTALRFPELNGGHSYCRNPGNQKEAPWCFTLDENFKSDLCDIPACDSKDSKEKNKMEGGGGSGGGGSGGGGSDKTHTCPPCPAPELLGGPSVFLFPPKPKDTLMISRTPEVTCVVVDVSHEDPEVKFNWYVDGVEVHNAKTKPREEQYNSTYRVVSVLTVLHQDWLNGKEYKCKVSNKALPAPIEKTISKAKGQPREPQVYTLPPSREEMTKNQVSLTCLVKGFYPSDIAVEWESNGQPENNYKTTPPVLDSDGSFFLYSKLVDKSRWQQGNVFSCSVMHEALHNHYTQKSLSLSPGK
T11 sequence (chain, as listed by the source limits assumed): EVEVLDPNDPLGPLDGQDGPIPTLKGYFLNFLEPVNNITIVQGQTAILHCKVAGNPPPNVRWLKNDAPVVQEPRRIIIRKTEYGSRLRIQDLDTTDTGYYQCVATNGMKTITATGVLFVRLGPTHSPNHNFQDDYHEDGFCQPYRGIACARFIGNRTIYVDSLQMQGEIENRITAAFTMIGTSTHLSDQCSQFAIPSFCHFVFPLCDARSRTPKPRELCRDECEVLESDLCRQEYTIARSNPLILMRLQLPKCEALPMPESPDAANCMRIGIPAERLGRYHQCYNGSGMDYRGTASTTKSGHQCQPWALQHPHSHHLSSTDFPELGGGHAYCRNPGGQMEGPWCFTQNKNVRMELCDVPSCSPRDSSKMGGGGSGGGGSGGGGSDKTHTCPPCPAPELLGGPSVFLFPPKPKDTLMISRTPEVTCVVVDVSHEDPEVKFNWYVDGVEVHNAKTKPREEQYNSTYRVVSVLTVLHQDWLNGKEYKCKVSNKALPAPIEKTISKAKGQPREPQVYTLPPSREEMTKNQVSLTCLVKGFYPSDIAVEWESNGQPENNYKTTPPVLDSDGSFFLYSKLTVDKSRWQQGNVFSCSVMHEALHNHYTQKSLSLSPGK
T1 sequence (chain, as listed by the source limits assumed): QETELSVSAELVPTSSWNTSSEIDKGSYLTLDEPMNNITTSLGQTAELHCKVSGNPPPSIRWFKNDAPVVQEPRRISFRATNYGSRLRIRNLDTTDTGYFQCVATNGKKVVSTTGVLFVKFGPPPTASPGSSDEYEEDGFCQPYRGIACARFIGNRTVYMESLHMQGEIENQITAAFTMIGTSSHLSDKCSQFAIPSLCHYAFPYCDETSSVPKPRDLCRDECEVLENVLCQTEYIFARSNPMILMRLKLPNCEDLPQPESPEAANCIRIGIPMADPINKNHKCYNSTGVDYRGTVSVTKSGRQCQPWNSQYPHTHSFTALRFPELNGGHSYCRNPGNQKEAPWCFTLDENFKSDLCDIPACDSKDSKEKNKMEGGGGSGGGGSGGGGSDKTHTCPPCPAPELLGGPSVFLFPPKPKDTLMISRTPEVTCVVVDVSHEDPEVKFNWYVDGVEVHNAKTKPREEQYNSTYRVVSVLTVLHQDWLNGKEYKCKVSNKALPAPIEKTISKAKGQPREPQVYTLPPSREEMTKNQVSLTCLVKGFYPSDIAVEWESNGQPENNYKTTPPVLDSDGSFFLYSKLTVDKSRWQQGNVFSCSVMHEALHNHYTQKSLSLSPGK
T3 sequence (chain, as listed by the source limits assumed): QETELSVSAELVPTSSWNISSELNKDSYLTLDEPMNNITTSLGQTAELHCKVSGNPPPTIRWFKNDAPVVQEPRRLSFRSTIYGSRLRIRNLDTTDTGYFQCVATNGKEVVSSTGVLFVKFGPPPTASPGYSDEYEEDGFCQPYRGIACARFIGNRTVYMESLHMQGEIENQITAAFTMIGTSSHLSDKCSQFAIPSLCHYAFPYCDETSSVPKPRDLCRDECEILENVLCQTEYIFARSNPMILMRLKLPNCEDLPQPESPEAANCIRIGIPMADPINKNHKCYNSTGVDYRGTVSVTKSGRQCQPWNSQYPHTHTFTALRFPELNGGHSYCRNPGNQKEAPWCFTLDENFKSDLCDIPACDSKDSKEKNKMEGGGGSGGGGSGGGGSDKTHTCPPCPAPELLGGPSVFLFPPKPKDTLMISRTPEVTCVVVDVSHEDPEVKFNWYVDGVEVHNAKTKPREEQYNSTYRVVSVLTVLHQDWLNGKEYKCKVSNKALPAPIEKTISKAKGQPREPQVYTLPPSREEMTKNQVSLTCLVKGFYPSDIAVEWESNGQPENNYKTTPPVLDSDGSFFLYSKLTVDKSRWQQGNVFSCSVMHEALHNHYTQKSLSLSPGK
T10 sequence (Fc fusion chain, as listed by the source): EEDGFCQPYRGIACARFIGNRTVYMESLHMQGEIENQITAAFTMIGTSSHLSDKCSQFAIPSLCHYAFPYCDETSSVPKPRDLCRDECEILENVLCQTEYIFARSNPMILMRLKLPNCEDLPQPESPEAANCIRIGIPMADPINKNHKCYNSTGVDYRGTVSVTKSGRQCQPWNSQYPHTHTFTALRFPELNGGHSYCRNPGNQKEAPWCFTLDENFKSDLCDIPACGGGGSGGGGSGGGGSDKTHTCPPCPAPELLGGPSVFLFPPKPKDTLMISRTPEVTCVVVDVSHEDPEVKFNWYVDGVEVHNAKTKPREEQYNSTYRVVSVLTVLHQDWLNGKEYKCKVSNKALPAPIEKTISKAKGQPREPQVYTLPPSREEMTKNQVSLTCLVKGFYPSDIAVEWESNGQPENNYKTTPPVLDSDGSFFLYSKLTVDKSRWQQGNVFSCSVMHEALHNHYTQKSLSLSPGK
T16 sequence (chain, as listed by the source limits assumed): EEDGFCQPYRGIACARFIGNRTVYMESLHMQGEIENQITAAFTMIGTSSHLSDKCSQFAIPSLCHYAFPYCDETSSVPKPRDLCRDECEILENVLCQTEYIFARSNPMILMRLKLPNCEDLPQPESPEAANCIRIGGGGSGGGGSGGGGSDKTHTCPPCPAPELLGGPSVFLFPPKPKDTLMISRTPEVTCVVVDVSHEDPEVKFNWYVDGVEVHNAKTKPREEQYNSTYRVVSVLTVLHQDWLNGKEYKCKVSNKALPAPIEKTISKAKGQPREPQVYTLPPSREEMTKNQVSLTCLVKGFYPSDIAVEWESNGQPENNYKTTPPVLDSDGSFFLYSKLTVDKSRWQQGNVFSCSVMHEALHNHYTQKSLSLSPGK

B1: BA11 Wobbe-G4S-P3A1-Wobbe-G4S-P3A1-CysHisMyc (VNAR)
chain: TRVDQSPSSLSASVGDRVTITCVLTDTSYPLYSTYWYRKNPGSSNKEQISISGRYSESVNKGTKSFTLTISSLQPEDSATYYCRAMSTNIWTGDGAGTKVEIKPGVQPSPGGGGSTRVDQTPRTATKETGESLTINCVLTDTSYGLYSTSWFRKNPGTTDWERMSIGGRYVESVNKGAKSFSLRIKDLTVADSATYYCKAREARHPWLRQWYDGAGTVLTVNPGVQPSPGGGGSTRVDQTPRTATKETGESLTINCVLTDTSYGLYSTSWFRKNPGTTDWERMSIGGRYVESVNKGAKSFSLRIKDLTVADSATYYCKAREARHPWLRQWYDGAGTVLTVNQACKAHHHHHHGAEFEQKLISEEDL
notes: VNAR fusion; also called BA11-P3A1-P3A1
binding result [1]: binds
Kd [2]: 5.08 nM
koff [2]: 0.000566 s⁻¹
kon [2]: 111000 M⁻¹ s⁻¹
Kd [3]: 3.47 nM
koff [3]: 0.000447 s⁻¹
kon [3]: 129000 M⁻¹ s⁻¹
Kd [4]: 2.53 nM

B4: P3A1 Wobbe-G4S-BA11-Wobbe-G4S-P3A1 CysHisMyc (VNAR)
chain: TRVDQTPRTATKETGESLTINCVLTDTSYGLYSTSWFRKNPGTTDWERMSIGGRYVESVNKGAKSFSLRIKDLTVADSATYYCKAREARHPWLRQWYDGAGTVLTVNPGVQPSPGGGGSTRVDQSPSSLSASVGDRVTITCVLTDTSYPLYSTYWYRKNPGSSNKEQISISGRYSESVNKGTKSFTLTISSLQPEDSATYYCRAMSTNIWTGDGAGTKVEIKPGVQPSPGGGGSTRVDQTPRTATKETGESLTINCVLTDTSYGLYSTSWFRKNPGTTDWERMSIGGRYVESVNKGAKSFSLRIKDLTVADSATYYCKAREARHPWLRQWYDGAGTVLTVNQACKAHHHHHHGAEFEQKLISEEDL
notes: VNAR fusion; also called P3A1-BA11-P3A1
binding result [1]: binds
Kd [2]: 5.58 nM
koff [2]: 0.00069 s⁻¹
kon [2]: 124000 M⁻¹ s⁻¹
Kd [3]: 2.54 nM
koff [3]: 0.00044 s⁻¹
kon [3]: 173000 M⁻¹ s⁻¹
Kd [4]: 1.6 nM

Binder: B5
binding result [7]: no binding (tested: 1000 nM)
binding result [8]: no binding (tested: 1000 nM)
binding result [9]: no binding (tested: 1000 nM)
binding result [10]: no binding (tested: 1000 nM)

Binder: B6
Kd [11]: 15.9 nM
koff [11]: 0.0411 s⁻¹
kon [11]: 2.58e+06 M⁻¹ s⁻¹
Kd [12]: 25.6 nM
koff [12]: 0.025 s⁻¹
kon [12]: 980000 M⁻¹ s⁻¹
Kd [13]: 19.1 nM
koff [13]: 0.0442 s⁻¹
kon [13]: 2.47e+06 M⁻¹ s⁻¹
Kd [14]: 17.7 nM
koff [14]: 0.045 s⁻¹
kon [14]: 2.86e+06 M⁻¹ s⁻¹
Kd [15]: 14.3 nM
koff [15]: 0.0408 s⁻¹
kon [15]: 2.95e+06 M⁻¹ s⁻¹
binding result [16]: binds
Kd [17]: 16.4 nM
koff [17]: 0.032 s⁻¹
kon [17]: 1.94e+06 M⁻¹ s⁻¹
binding result [18]: no binding (tested: 10 ug/ml)
binding result [19]: no binding
binding result [20]: no binding (tested: 1000 ng/ml)
binding result [21]: no binding (tested: 1000 ng/ml)
binding result [22]: no binding (tested: 1000 ng/ml)
binding result [23]: no binding (tested: 1000 ng/ml)
binding result [24]: binds

Continued, values first:

Median YL1-PE [5]: 1470
B2: B1G1-B1G1 HisMyc (VNAR)
chain: TRVDQSPSSLSASVGDRVTITCVLTGANYGLASTYWYRKNPGSSNKEQISISGRYSESVNKGTKSFTLTISSLQPEDSATYYCRAYPWGAGAPWLVQWYDGAGTKVEIKGGGGSGGGGSGGGGSGGGGSGGGGSTRVDQSPSSLSASVGDRVTITCVLTGANYGLASTYWYRKNPGSSNKEQISISGRYSESVNKGTKSFTLTISSLQPEDSATYYCRAYPWGAGAPWLVQWYDGAGTKVEIKQASGAHHHHHHGAEFEQKLISEEDL
notes: VNAR fusion

binding result [6]: binds
B3: CPF7-[G4S]5-CPF7 his myc (VNAR)
chain: TRVDQTPRTATKETGESLTINCVVTGAKYGLFATYWYRKNPGSSNQERISISGRYVESVNKRTMSFSLRIKDLTVADSATYYCKAVFMPQHWHPAAHWYDGAGTVLTVNGGGGSGGGGSGGGGSGGGGSGGGGSTRVDQTPRTATKETGESLTINCVVTGAKYGLFATYWYRKNPGSSNQERISISGRYVESVNKRTMSFSLRIKDLTVADSATYYCKAVFMPQHWHPAAHWYDGAGTVLTVNQASGAHHHHHHGAEFEQKLISEEDL
notes: VNAR homodimer; also called CPF7-CPF7 dimer

Kd [12]: 7.8 nM
koff [12]: 0.0206 s⁻¹
kon [12]: 2.92e+06 M⁻¹ s⁻¹
binding result [25]: no binding
B7: P3A1 his (VNAR)
VNAR: TRVDQTPRTATKETGESLTINCVLTDTSYGLYSTSWFRKNPGTTDWERMSIGGRYVESVNKGAKSFSLRIKDLTVADSATYYCKAREARHPWLRQWYDGAGTVLTVNQ
notes: VNAR; also called P3A1 6xHis

Kd [13]: 13.6 nM
koff [13]: 0.0296 s⁻¹
kon [13]: 2.33e+06 M⁻¹ s⁻¹
binding result [26]: no binding
Kd [14]: 68.6 nM
koff [14]: 0.0366 s⁻¹
kon [14]: 772000 M⁻¹ s⁻¹
Kd [15]: 19.1 nM
koff [15]: 0.032 s⁻¹
kon [15]: 2.26e+06 M⁻¹ s⁻¹
B8: CPF7 his myc (VNAR)
VNAR: TRVDQTPRTATKETGESLTINCVVTGAKYGLFATYWYRKNPGSSNQERISISGRYVESVNKRTMSFSLRIKDLTVADSATYYCKAVFMPQHWHPAAHWYDGAGTVLTVNQ
notes: VNAR

Kd [13]: 11.1 nM
koff [13]: 0.0118 s⁻¹
kon [13]: 1.11e+06 M⁻¹ s⁻¹
binding result [26]: no binding
Kd [15]: 1.4 nM
koff [15]: 0.002 s⁻¹
kon [15]: 1.41e+06 M⁻¹ s⁻¹
binding result [27]: binds
B9: E7 his myc (VNAR)
VNAR: TRVDQTPRTATKETGESLTINCVVTGAKYGLAATYWYRKNPGSSNQERISISGRYVESVNKRTMSFSLRIKDLTVADSATYYCKAYPWAMWGQWYDGAGTVLTVNQ
notes: VNAR

Kd [12]: 0.36 nM
koff [12]: 0.000598 s⁻¹
kon [12]: 1.67e+06 M⁻¹ s⁻¹
binding result [25]: no binding
B10: P3A1 dimer, no tag (VNAR)
chain: TRVDQTPRTATKETGESLTINCVLTDTSYGLYSTSWFRKNPGTTDWERMSIGGRYVESVNKGAKSFSLRIKDLTVADSATYYCKAREARHPWLRQWYDGAGTVLTVNGGGGSGGGGSGGGGSGGGGSGGGGSTRVDQTPRTATKETGESLTINCVLTDTSYGLYSTSWFRKNPGTTDWERMSIGGRYVESVNKGAKSFSLRIKDLTVADSATYYCKAREARHPWLRQWYDGAGTVLTVN
